The source of these data is publication PMC2691842 (Nucleic Acids Research, 2009).

This series deals with the molecule itself. Briefly: AUC.

B1: C.Esp1396I controller (C) protein (natural protein, UniProt Q8GGH0 1-79, looked up)
chain: MESFLLSKVSFVIKKIRLEKGMTQEDLAYKSNLDRTYISGIERNSRNLTIKSLELIMKGLEVSDVVFFEMLIKEILKHD
With B1, the Kd was ~600 nM and the “stoichiometry N” value turned out to be 2.
